Results published in article doi:10.1101/2025.02.22.639503 (bioRxiv, 2025).
“And” between values parts separate entries of the source, which are not always exact repeats. Equal entries are not always repeated.

B1: HSV-1 terminase subunit pUL15 (His-pUL15) (natural protein)
chain: MFGQQLASDVQQYLERLEKQRQLKVGADEASAGLTMGGDALRVPFLDFATATPKRHQTVVPGVGTLHDCCEHSPLFSAVARRLLFNSLVPAQLKGRDFGGDHTAKLEFLAPELVRAVARLRFKECAPADVVPQRNAYYSVLNTFQALHRSEAFRQLVHFVRDFAQLLKTSFRASSLTETTGPPKKRAKVDVATHGRTYGTLELFQKMILMHATYFLAAVLLGDHAEQVNTFLRLVFEIPLFSDAAVRHFRQRATVFLVPRRHGKTWFLVPLIALSLASFRGIKIGYTAHIRKATEPVFEEIDACLRGWFGSARVDHVKGETISFSFPDGSRSTIVFASSHNTNGIRGQDFNLLFVDEANFIRPDAVQTIMGFLNQANCKIIFVSSTNTGKASTSFLYNLRGAADELLNVVTYICDDHMPRVVTHTNATACSCYILNKPVFITMDGAVRRTADLFLADSFMQEIIGGQARETGDDRPVLTKSAGERFLLYRPSTTTNSGLMAPDLYVYVDPAFTANTRASGTGVAVVGRYRDDYIIFALEHFFLRALTGSAPADIARCVVHSLTQVLALHPGAFRGVRVAVEGNSSQDSAVAIATHVHTEMHRLLASEGADAGSGPELLFYHCEPPGSAVLYPFFLLNKQKTPAFEHFIKKFNSGGVMASQEIVSATVRLQTDPVEYLLEQLNNLTETVSPNTDVRTYSGKRNGASDDLMVAVIMAIYLAAQAGPPHTFAPITRVS
B2: HSV-1 terminase subunit pUL33 (natural protein)
chain: MAGREGRTRQRTLRDTIPDCALRSQTLESLDARYVSRDGAHDAAVWFEDMTPAELEVVFPTTDAKLNYLSRTQRLASLLTYAGPIKAPDDAAAPQTPDTACVHGELLAAKRERFAAVINRFLDLHQILRG
B3: HSV-1 terminase heterotrimer (pUL15, pUL28, pUL33) (complex)
chain 1: B1 chain
chain 2: MAAPVSEPTVARQKLLALLGQVQTYVFQIELLRRCDPHIGRGKLPQLKLNALQVRALRRRLRPGLEAQAGAFLTPLSVTLELLLEYAWREGERLLGSLETFATAGDVAAFFTETMGLARPCPYHQRVRLDTYGGTVHMELCFLHDVENFLKQLNYCHLITPSRGATAALERVREFMVGAVGSGLIVPPELSDPSHPCAVCFEELCVTANQGATIARRLADRICNHVTQQAQVRLDANELRRYLPHAAGLSDADRARALSVLDHALARTAGGDGQPHPSPENDSVRKEADALLEAHDVFQATTPGLYAISELRFWLASGDRAGQTTMDAFASNLTALARRELQQETAAVAVELALFGRRAEHFDRAFGSHLAALDMVDALIIGGQATSPDDQIEALIRACYDHHLTTPLLRRLVSPEQCDEEALRRVLARMGAGGAADAPKGGAGPDDDGDRVAVEEGARGLGAPGGGGEDEDRRRGPGGQGPETWGDIATQAAADVRERRRLYADRLTKRSLASLGRCVREQRGELEKMLRVSVHGEVLPATFAAVANGFAARARFCALTAGAGTVIDNRSAPGVFDAHRFMRASLLRHQVDPALLPSITHRFFELVNGPLFDHSTHSFAQPPNTALYYSVENVGLLPHLKEELARFIMGAGGSGADWAVSEFQRFYCFDGISGITPTQRAAWRYIRELIIATTLFASVYRCGELELRRPDCSRPTSEGRYRYPPGVYLTYDSDCPLVAIVESAPDGCIGPRSVVVYDRDVFSILYSVLQHLAPRLPDGGHDGPP
chain 3: B2 chain

Tests used:
Assay in all cases: native MS
[1] = biological target: Alcohol Dehydrogenase from Saccharomyces cerevisiae (Saccharomyces cerevisiae) (UniProt P00330)
[2] = biological target: HSV-1 terminase-associated protein pUL32 (Strep-pUL32) (herpes simplex virus 1 (HSV-1)) (UniProt P10216)
[3] = biological target: KSHV (HHV-8) pORF68 (TwinStrep-ORF68) (human herpesvirus 8 (KSHV HHV-8))
[4] = biological target: T1, HSV-1 terminase subunit pUL28 (herpes simplex virus 1 (HSV-1, strain …, UniProt P10212 1-785))
T1 sequence: B3 chain 2

[5] = biological target: B1
native MS = biological target: the molecule itself

## Alcohol Dehydrogenase from Saccharomyces cerevisiae (from UniProt P00330 1-348) (enzyme)
[1]
  stoichiometry N: 4

## HSV-1 terminase-associated protein pUL32 (Strep-pUL32) (from UniProt P10216 1-596) (natural protein)
[2]
  stoichiometry N: 3

## KSHV (HHV-8) pORF68 (TwinStrep-ORF68) (natural protein)
[3]
  stoichiometry N: 10

## B1
[4]
  binding result: binds

## B2
[5]
  binding result: binds

## B3
Native MS
  stoichiometry N: 2 and 3
